Test [1] concerns the target T1, human FGFR2b (beta)-Fc, human Fc fusion (human).
T1 construct: range 65-267; Made in 293F cells; The Biacore and Ab 26 ELISA text says only 'hFGFR2b-Fc' or 'FGFR2b'; also called hFGFR2b-Fc; human FGFR2b-Fc
Briefly: SPR (Biacore T200), hFGFR2b-Fc amine-coupled to CM5 chip, antibody injected. On the procedure:
(§1) The binding of antibodies to human FGFR2b or human FGFR1b antigen was determined by surface plasmon resonance (Biacore). Briefly, CM5 sensor chip (GE Healthcare Life Sciences) was firstly activated by a 4 min injection of 1:1 freshly mixture of 50 mM N-hydroxysuccinamide (NHS): 200 mM EDC […]. Then hFGFR2b-Fc or hFGFR1b-Fc was immobilized to activated CM5 sensor chip using Amine Coupling Kit (GE Healthcare Life Sciences) and 1M ethanolamine as the blocking reagent. About 20-30 response units (RU, 1 RU represents the binding of 1 pg of protein per square mm) of antigen protein were captured.
(§2) Antibodies were diluted in HBS-EP+ running buffer (GE Healthcare Life Sciences) (10 mM HEPES, 150 mM NaCl, 3 mM EDTA, 0.05% surfactant P20, pH 7.4) and injected at serial concentration (0, 6.25, 12.5, 25, 50, 100, 150, 200 nM) and surface regeneration of the CM5 sensor chip were included in each running cycle. The association constant, dissociation constant were calculated with Biacore T200 evaluation software (version 1.0). […] In addition, Ab 26c is distinguished from the antibody FPA144 in terms of FGFR1b binding.

For test [2], the target named is T2, rat/mouse FGFR2b ECD fused with murine Fc (rat).
T2 construct: also called recombinant rat/mouse FGFR2b-Fc; rat FGFR2b
Put plainly: ELISA, plate coated with rat/mouse FGFR2b-Fc, anti-human IgG HRP. On the procedure: (§3) The cross-species binding of Ab 26c to recombinant cyno, rat/mouse, and human FGFR2b-Fc fusion proteins was conducted with ELISA. In brief, 96-well ELISA plate were coated with about 100 μl/well 0.1 μg/ml recombinant human FGFR2b-Fc, recombinant rat/mouse FGFR2b-Fc, or recombinant cynomolgus FGFR2b-Fc protein in PBS overnight. Then the plate was blocked with 2% BSA in PBS with 0.05% Tween20 and incubation with antibody samples for 60 min at room temperature, and then washed twice in 1×TBST (Cell Signaling Technology, #9997) and followed by incubation with anti-human IgG HRP conjugate for 60 min at a room temperature. HRP activity was detected with tetra-methylbenzidine substrate (Cell Signaling Technology, #7004) and the reaction was stopped with stop solution (Cell Signaling Technology, #7002). The plate was read at 450 nm. […] Ab 26c has the highest binding affinity to rat/mouse FGFR2b, followed by human FGFR2b, and then cynomolgus FGFR2b.

Test [3] deals with T3, cynomolgus FGFR2b-Fc (ECD fused to murine Fc) (cynomolgus monkey).
T3 construct: also called recombinant cynomolgus FGFR2b-Fc; cyno FGFR2b
Briefly: ELISA, plate coated with cynomolgus FGFR2b-Fc, anti-human IgG HRP. As to the method: as §3
On the technique in general: An ELISA detects its analyte on a solid surface through an enzyme-linked reagent.

Test [4] concerns the target T4, recombinant human FGFR1b-Fc (R&D Systems) (human, UniProt P11362-19 22-376, limits assumed).
T4 construct: Bought from R&D Systems; also called hFGFR1b-Fc; not shown: human Fc of the bought fusion protein
T4 sequence (looked up): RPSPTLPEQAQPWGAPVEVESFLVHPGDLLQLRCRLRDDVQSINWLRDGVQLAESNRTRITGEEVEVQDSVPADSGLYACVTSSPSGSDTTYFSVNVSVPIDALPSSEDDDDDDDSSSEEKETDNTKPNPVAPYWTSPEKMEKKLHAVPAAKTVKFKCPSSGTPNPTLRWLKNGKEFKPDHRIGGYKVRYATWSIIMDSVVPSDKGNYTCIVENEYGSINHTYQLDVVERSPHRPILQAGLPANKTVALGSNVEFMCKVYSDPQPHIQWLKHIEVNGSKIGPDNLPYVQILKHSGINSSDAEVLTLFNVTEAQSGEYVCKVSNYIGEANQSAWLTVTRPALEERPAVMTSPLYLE
Briefly: SPR (Biacore T200), hFGFR1b-Fc amine-coupled to CM5 chip, antibody injected. On the procedure: as §1, §2

The target of test [5] is T5, human FGFR2b ECD fused with murine Fc (human).
T5 construct: The ELISA text says only 'recombinant human FGFR2b-Fc'; also called recombinant human FGFR2b-Fc; hu FGFR2b
T5 chain: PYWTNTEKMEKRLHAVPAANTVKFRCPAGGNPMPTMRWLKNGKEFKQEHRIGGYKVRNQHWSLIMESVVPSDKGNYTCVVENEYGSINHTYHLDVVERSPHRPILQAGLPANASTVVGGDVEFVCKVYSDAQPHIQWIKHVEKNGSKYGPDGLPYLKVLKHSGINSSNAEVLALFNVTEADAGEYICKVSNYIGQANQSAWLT
Put plainly: ELISA, plate coated with human FGFR2b-Fc, anti-human IgG HRP. As to the method:
as §3

Test [6] deals with T4, recombinant human FGFR1b-Fc (R&D …). Briefly: SPR (Biacore T200), hFGFR1b-Fc amine-coupled to a CM5 chip, antibody injected at 0-200 nM. As to the method: as §1, §2
For test [7], the target named is T6, human FGFR2b, endogenous, on KATOIII gastric cancer cells (human, UniProt P21802-3 22-822). Put plainly: cell-based or functional assay.
Test [8] addresses T1, human FGFR2b (beta)-Fc, human Fc fusion. Briefly: SPR (Biacore T200), hFGFR2b-Fc amine-coupled to a CM5 chip, antibody injected at 0-200 nM. On the procedure:
as §1, §2

Test [9] concerns the target T6, human FGFR2b, endogenous, on KATOIII …. Put plainly: flow cytometry on KATOIII cells. On the procedure: To confirm that the selected antibodies can bind to the endogenous forms of FGFR2b on the cell membrane, flow cytometry was performed using FGFR2b expressing KATOIII cells. All antibodies were prepared in PBS buffer with 10% donkey serum (Jackson Immunogen #017-000-121). 500,000 KATOIII cells were incubated with […] of different concentration of anti-FGFR2b antibody for 60 min at 4° C. Cells were washed twice and incubated in 100 μl of 10 μg/ml of 2nd IgG-Alexa488 antibody (Jackson Immunogen #709546149) for 30 minutes at 4° C. in the dark. Cells were washed three times and resuspended with wash buffer and analyzed on a flow cytometer.
For orientation: Flow cytometry measures light scatter and fluorescence of single cells or particles in a stream.

Test [10] concerns the target T4, recombinant human FGFR1b-Fc (R&D …). Briefly: ELISA on HuFGFR1b.
Test [11] addresses T1, human FGFR2b (beta)-Fc, human Fc fusion. Put plainly: ELISA on HuFGFR2b.
Test [12] addresses T7, recombinant human FGFR4-Fc (R&D Systems) (human, UniProt P22455 22-369).
T7 construct: Bought from R&D Systems; not shown: human Fc of the bought fusion protein
T7 sequence (looked up): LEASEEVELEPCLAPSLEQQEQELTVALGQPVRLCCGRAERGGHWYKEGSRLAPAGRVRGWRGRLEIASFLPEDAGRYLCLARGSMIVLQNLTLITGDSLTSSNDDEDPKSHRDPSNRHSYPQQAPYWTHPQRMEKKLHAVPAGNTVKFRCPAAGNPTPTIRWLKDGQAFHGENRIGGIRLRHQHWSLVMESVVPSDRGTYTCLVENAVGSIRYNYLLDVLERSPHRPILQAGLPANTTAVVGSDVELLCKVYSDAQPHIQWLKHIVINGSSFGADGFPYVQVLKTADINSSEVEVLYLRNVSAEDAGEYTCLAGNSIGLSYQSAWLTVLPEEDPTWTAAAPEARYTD
Put plainly: ELISA on HuFGFR4.

The target in test [13] is T8, recombinant human FGFR3b-Fc (R&D Systems) (human, UniProt P22607-2 23-377).
T8 construct: Bought from R&D Systems; not shown: human Fc of the bought fusion protein
T8 sequence (looked up): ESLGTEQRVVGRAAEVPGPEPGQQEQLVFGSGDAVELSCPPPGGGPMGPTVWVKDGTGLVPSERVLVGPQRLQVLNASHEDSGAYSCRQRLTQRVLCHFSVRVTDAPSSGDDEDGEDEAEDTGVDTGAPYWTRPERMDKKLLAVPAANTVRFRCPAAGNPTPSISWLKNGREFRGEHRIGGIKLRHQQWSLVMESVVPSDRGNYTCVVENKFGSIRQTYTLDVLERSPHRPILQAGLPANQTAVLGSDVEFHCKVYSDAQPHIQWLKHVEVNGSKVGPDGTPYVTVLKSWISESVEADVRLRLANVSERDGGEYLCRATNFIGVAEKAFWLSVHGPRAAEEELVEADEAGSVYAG
Briefly: ELISA on HuFGFR3b.

As a reminder, the Kd is the concentration at which binding is half-saturated. Broadly, the EC50 (read off the curve) is the concentration needed to bring the measured effect to its halfway point. The term koff denotes a measure of how fast the partners let go of each other. Usually kon stands for the rate constant with which the complex forms. The term EC50 denotes the concentration giving half of the maximal effect.

T6 sequence (P21802 other isoform, or with tags, fused parts or gaps): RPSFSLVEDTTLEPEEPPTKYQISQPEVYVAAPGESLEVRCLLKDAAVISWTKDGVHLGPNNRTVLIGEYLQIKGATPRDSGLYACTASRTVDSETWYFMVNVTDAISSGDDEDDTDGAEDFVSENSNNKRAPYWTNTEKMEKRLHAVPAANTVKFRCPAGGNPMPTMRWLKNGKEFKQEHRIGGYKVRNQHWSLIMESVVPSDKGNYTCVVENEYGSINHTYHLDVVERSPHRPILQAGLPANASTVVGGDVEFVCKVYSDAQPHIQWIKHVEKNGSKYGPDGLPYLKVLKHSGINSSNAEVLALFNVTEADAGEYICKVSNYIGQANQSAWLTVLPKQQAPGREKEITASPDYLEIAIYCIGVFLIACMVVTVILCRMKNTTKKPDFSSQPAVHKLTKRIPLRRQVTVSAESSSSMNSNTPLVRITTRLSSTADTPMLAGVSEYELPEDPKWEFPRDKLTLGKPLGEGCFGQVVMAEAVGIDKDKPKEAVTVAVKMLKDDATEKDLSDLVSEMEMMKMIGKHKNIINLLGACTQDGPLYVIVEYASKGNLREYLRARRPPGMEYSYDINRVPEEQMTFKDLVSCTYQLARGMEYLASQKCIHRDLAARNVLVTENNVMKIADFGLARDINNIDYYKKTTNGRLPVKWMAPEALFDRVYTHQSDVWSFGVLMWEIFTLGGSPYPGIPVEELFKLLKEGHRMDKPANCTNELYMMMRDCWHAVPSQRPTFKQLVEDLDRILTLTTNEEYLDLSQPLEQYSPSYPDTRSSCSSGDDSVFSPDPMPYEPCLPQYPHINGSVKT

B1: Ab 26c (chimeric antibody based on Ab 26) (antibody, V domains shown)
VH: DVHLQESGPGLVKPSQSLSLTCSVTGYSITSGYYWNWIRQFPGNKLEWMGYITYDGSNNYNPSLKNRLSITRDTSKNQFFLQLSSLTTEDTATYFCARVYYYGSGNFDVWGTGTTVTVSS
VL: SIVMTQTPKILLVSAGDRVTITCKASQSVSNDVAWYQQKPGQSPKLLIYYASNRYTGVPDRFTGSGYGTDFTFTISTVQAEDLAVYFCHQDHTSPFTFGSGTKLEIK
notes: Mouse VH and VL fused to a human heavy chain constant region and a human light chain constant region; also called chimeric Ab26c
Turning to B1, the dissociation constant Kd amounted to 1.68 nM in test [1] and 3.21 nM in test [4]. In addition, the 50% effective concentration (EC50 (read off the curve)) in [2] was approximately 200 pM; in test [3] it was approximately 600 pM; in test [5] it was approximately 200 pM. Further, the koff in [6] is 0.000552 s⁻¹; in test [8], 0.00017 s⁻¹. Moreover, the kon in test [6] amounted to 172000 M⁻¹ s⁻¹; in [8], 101000 M⁻¹ s⁻¹. The “ADCC EC50, KATOIII target cells with human NK effector cells (E/T 8:1)” value in [7] is 0.034 µg/mL. For the same molecule, in [9], the EC50 was approximately 3 nM.

B2: Ab 26 (mouse monoclonal antibody) (antibody, V domains shown)
VH: B1 VH
VL: B1 VL
notes: Mouse hybridoma antibody; also called mouse Ab 26
As to B2, the “EC50 (read off the curve)” value in test [10] is approximately 100 pM; in test [11], approximately 80 pM. The binding result in test [12] and in test [13] was “no binding (tested: about 10^-7.3 M (about 5e-8 M))” throughout.

Values taken from patent US20230052256A1 (DIZAL JIANGSU PHARMACEUTICAL, published 2023).
